# Measured values taken from IntAct's records for PubMed 36931259.
# B1: 14-3-3 protein sigma (Homo sapiens), P31947 (parent)
# chain: MERASLIQKAKLAEQAERYEDMAAFMKGAVEKGEELSCEERNLLSVAYKNVVGGQRAAWRVLSSIEQKSNEEGSEEKGPEVREYREKVETELQGVCDTVLGLLDSHLIKEAGDAESRVFYLKMKGDYYRYLAEVATGDDKKRIIDSARSAYQEAMDISKKEMPPTNPIRLGLALNFSVFHYEIANSPEEAISLAKTTFDEAMADLHTLSEDSYKDSTLIMQLLRDNLTLWTADNAGEEGGEAPQEPQS
# Variants of: B1
# Details: with MAP3K14, Q99558
row,Variant,effect of a mutation on the interaction
1,K49E;R56E;V178D,decreasing interaction strength

# Variants of: B1
# Details: with limk2_human LIMK2, P53671
# limk2_human LIMK2, P53671, sequence (P53671 whole entry, looked up): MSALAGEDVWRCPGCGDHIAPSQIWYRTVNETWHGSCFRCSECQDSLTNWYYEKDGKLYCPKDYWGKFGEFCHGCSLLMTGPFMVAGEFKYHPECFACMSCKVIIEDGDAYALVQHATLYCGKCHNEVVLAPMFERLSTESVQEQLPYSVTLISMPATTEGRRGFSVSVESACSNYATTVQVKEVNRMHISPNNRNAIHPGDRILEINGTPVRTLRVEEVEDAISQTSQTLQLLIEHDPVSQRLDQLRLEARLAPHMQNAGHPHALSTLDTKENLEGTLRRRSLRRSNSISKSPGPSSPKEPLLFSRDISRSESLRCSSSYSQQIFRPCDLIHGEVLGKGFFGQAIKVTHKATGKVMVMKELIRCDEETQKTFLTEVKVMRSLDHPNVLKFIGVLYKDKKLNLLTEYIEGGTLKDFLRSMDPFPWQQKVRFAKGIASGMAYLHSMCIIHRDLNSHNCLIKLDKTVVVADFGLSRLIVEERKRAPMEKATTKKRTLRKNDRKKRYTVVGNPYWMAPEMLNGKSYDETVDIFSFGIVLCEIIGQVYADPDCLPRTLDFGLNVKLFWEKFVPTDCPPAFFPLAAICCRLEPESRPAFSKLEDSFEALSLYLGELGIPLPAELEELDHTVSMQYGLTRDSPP
row,Variant,effect of a mutation on the interaction
1,K49E;R56E;V178D,decreasing interaction strength

# Variants of: B1
# Details: with m3k9_human MAP3K9, P80192
row,Variant,effect of a mutation on the interaction
1,K49E;R56E;V178D,decreasing interaction strength

# Variants of: B1
# Details: with tesk2_human TESK2, Q96S53
# tesk2_human TESK2, Q96S53, sequence (Q96S53 whole entry, looked up): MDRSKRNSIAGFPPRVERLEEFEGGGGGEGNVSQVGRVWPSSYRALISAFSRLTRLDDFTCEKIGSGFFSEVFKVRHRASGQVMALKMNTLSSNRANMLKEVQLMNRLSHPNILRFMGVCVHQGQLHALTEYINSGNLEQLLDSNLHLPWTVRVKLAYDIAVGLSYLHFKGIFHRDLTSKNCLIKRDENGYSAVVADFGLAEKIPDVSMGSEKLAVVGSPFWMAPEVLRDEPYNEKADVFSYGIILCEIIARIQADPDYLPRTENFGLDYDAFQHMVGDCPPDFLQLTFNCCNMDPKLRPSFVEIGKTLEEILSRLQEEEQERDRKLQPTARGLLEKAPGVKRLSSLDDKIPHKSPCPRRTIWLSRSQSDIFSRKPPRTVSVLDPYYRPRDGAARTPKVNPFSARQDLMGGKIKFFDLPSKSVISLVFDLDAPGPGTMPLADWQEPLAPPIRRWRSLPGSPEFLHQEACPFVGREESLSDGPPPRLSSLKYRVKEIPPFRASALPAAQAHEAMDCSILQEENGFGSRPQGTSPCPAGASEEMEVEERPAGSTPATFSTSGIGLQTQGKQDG
row,Variant,effect of a mutation on the interaction
1,K49E;R56E;V178D,decreasing interaction strength

# Variants of: B1
# Details: with mk04_human MAPK4, P31152
row,Variant,effect of a mutation on the interaction
1,K49E;R56E;V178D,decreasing interaction strength

# Variants of: B1
# Details: with wnk1_human WNK1, Q9H4A3
row,Variant,effect of a mutation on the interaction
1,K49E;R56E;V178D,decreasing interaction strength

# Variants of: B1
# Details: with abl1_human ABL1, P00519
row,Variant,effect of a mutation on the interaction
1,K49E;R56E;V178D,decreasing interaction strength

# Variants of: B1
# Details: with mast2_human MAST2, Q6P0Q8
row,Variant,effect of a mutation on the interaction
1,K49E;R56E;V178D,decreasing interaction strength

# Variants of: B1
# Details: with dyr1b_human DYRK1B
row,Variant,effect of a mutation on the interaction
1,K49E;R56E;V178D,decreasing interaction strength

# Variants of: B1
# Details: with wnk4_human WNK4, Q96J92
# wnk4_human WNK4, Q96J92, sequence (Q96J92 whole entry): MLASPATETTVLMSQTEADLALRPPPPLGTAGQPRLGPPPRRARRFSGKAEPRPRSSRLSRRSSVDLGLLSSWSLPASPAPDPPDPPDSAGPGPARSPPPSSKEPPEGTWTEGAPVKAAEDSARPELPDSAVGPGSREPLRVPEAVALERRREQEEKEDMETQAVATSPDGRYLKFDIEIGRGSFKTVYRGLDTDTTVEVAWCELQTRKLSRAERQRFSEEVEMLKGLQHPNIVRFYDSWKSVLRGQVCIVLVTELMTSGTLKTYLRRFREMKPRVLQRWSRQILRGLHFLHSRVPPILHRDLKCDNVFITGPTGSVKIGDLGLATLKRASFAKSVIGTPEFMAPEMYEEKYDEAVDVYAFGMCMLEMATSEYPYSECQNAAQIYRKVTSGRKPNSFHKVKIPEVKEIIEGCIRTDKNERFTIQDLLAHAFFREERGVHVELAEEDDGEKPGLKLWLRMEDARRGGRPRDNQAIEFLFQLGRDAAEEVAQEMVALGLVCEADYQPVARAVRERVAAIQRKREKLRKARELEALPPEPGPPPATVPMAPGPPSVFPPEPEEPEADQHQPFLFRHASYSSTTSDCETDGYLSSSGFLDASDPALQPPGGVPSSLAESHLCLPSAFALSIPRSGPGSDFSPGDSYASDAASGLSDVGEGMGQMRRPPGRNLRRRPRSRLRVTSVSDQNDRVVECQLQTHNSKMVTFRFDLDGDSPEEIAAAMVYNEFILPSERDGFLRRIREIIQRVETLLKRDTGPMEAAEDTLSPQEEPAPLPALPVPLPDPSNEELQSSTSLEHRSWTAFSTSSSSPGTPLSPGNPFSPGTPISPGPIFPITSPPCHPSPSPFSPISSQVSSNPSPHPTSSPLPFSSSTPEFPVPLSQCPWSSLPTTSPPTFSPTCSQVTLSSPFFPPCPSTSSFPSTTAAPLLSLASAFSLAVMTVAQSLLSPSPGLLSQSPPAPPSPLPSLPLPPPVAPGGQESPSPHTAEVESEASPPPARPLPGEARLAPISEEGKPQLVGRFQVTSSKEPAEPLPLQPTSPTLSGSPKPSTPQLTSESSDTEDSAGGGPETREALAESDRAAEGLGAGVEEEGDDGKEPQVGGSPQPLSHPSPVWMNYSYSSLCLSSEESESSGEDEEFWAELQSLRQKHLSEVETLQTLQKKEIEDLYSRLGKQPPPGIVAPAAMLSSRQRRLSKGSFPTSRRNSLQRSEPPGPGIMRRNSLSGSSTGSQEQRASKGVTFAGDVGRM
row,Variant,effect of a mutation on the interaction
1,K49E;R56E;V178D,decreasing interaction strength

# Variants of: B1
# Details: with clk3_human CLK3, P49761
row,Variant,effect of a mutation on the interaction
1,K49E;R56E;V178D,decreasing interaction strength

# Variants of: B1
# Details: with cdk18_human CDK18, Q07002
row,Variant,effect of a mutation on the interaction
1,K49E;R56E;V178D,decreasing interaction strength

# Variants of: B1
# Details: with lck_human LCK
row,Variant,effect of a mutation on the interaction
1,K49E;R56E;V178D,decreasing interaction strength

# Variants of: B1
# Details: with ntrk3_human NTRK3, Q16288
row,Variant,effect of a mutation on the interaction
1,K49E;R56E;V178D,decreasing interaction strength

# Variants of: B1
# Details: with mp2k7_human MAP2K7, O14733
row,Variant,effect of a mutation on the interaction
1,K49E;R56E;V178D,decreasing interaction strength

# Variants of: B1
# Details: with kkcc1_human CAMKK1, Q8N5S9
row,Variant,effect of a mutation on the interaction
1,K49E;R56E;V178D,decreasing interaction strength

# Variants of: B1
# Details: with tesk1_human TESK1, Q15569
# tesk1_human TESK1, Q15569, sequence (Q15569 whole entry, looked up): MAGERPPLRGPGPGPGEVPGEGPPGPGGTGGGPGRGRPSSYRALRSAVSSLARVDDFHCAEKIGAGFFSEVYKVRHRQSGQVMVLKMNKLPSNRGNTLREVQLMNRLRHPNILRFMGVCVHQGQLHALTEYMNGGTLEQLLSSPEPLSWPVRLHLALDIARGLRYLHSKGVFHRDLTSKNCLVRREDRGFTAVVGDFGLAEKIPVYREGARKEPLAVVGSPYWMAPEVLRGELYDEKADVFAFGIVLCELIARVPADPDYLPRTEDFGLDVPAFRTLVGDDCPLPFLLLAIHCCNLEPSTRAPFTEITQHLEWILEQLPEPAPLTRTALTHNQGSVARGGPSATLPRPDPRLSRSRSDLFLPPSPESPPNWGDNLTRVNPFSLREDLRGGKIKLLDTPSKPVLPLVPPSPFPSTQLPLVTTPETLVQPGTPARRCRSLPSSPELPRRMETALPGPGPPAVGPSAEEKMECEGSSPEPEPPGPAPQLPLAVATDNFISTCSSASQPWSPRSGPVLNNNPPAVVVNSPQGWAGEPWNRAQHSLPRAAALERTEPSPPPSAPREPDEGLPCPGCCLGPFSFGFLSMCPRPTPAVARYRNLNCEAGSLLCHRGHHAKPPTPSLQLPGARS
row,Variant,effect of a mutation on the interaction
1,K49E;R56E;V178D,decreasing interaction strength

# Variants of: B1
# Details: with ilk_human ILK
row,Variant,effect of a mutation on the interaction
1,K49E;R56E;V178D,decreasing interaction strength

# Variants of: B1
# Details: with srpk3_human SRPK3, Q9UPE1
row,Variant,effect of a mutation on the interaction
1,K49E;R56E;V178D,decreasing interaction strength

# Variants of: B1
# Details: with btk_human BTK
row,Variant,effect of a mutation on the interaction
1,K49E;R56E;V178D,decreasing interaction strength

# Variants of: B1
# Details: with kpce_human PRKCE
row,Variant,effect of a mutation on the interaction
1,K49E;R56E;V178D,decreasing interaction strength

# Variants of: B1
# Details: with plk2_human PLK2, Q9NYY3
row,Variant,effect of a mutation on the interaction
1,K49E;R56E;V178D,decreasing interaction strength

# Variants of: B1
# Details: with st32c_human STK32C
row,Variant,effect of a mutation on the interaction
1,K49E;R56E;V178D,decreasing interaction strength

# Variants of: B1
# Details: with mylk2_human MYLK2, Q9H1R3
row,Variant,effect of a mutation on the interaction
1,K49E;R56E;V178D,decreasing interaction strength

# Variants of: B1
# Details: with ripk2_human RIPK2, O43353
row,Variant,effect of a mutation on the interaction
1,K49E;R56E;V178D,decreasing interaction strength

# Variants of: B1
# Details: with m4k4_human MAP4K4, O95819
# m4k4_human MAP4K4, O95819, sequence (O95819 whole entry, looked up): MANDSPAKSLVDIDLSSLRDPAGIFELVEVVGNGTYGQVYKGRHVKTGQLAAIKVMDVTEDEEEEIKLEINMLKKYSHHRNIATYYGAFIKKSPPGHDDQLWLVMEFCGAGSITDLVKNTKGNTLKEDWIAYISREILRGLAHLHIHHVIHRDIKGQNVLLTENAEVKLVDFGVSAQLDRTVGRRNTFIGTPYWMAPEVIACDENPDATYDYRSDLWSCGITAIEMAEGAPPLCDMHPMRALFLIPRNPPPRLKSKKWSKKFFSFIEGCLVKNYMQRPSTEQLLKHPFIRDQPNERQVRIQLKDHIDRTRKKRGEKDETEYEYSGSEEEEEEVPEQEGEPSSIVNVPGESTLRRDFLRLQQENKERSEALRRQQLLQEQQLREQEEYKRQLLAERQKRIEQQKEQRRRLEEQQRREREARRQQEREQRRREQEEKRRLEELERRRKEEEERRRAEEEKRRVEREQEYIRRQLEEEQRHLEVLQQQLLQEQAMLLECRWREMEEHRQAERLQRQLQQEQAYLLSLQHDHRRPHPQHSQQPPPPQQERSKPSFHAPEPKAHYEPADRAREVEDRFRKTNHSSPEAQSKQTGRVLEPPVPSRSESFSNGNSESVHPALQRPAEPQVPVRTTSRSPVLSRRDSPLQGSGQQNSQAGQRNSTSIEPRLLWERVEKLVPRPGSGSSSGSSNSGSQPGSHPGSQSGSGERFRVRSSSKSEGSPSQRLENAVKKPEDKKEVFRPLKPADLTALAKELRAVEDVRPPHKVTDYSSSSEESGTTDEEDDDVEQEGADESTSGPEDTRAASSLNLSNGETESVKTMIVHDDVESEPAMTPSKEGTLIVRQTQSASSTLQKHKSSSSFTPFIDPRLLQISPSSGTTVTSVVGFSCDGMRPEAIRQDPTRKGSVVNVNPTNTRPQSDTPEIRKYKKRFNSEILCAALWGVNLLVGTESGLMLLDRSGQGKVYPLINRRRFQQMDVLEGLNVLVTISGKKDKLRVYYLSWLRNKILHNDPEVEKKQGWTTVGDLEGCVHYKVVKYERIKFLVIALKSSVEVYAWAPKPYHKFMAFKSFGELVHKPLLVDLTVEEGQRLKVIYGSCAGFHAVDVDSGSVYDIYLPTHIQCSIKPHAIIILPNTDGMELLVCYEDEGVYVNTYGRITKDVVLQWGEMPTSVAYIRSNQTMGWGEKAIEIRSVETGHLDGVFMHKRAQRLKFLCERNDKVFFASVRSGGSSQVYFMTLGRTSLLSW
row,Variant,effect of a mutation on the interaction
1,K49E;R56E;V178D,decreasing interaction strength

# Variants of: B1
# Details: with kc1d_human CSNK1D
row,Variant,effect of a mutation on the interaction
1,K49E;R56E;V178D,decreasing interaction strength

# Variants of: B1
# Details: with ks6a2_human RPS6KA2, Q15349
row,Variant,effect of a mutation on the interaction
1,K49E;R56E;V178D,decreasing interaction strength

# Variants of: B1
# Details: with alpk1_human ALPK1, Q96QP1
row,Variant,effect of a mutation on the interaction
1,K49E;R56E;V178D,decreasing interaction strength

# Variants of: B1
# Details: with kc1e_human CSNK1E
row,Variant,effect of a mutation on the interaction
1,K49E;R56E;V178D,decreasing interaction strength

# Variants of: B1
# Details: with kpcg_human PRKCG
row,Variant,effect of a mutation on the interaction
1,K49E;R56E;V178D,decreasing interaction strength

# Variants of: B1
# Details: with fak2_human PTK2B
row,Variant,effect of a mutation on the interaction
1,K49E;R56E;V178D,decreasing interaction strength

# Variants of: B1
# Details: with cdk3_human CDK3, Q00526
row,Variant,effect of a mutation on the interaction
1,K49E;R56E;V178D,decreasing interaction strength

# Variants of: B1
# Details: with limk1_human LIMK1, P53667
# limk1_human LIMK1, P53667, sequence (P53667 whole entry, looked up): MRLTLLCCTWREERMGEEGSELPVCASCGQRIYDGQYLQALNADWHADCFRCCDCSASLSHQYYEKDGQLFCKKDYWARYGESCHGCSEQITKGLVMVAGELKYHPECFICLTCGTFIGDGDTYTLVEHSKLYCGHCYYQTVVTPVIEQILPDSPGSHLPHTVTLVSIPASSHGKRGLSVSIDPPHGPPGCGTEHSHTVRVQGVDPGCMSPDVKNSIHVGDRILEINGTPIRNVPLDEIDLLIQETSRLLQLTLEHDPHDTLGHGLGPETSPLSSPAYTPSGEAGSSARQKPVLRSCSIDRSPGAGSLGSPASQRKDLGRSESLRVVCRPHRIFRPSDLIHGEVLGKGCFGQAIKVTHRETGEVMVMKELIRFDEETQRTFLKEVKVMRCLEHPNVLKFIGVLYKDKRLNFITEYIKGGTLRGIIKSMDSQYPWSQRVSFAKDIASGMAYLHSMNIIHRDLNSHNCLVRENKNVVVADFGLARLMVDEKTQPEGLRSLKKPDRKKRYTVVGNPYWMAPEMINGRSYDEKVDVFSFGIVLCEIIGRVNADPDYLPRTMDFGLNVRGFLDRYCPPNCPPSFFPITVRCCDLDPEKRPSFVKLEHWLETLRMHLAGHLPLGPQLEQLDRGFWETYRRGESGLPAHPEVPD
row,Variant,effect of a mutation on the interaction
1,K49E;R56E;V178D,decreasing interaction strength

# Variants of: B1
# Details: with pak6_human PAK6, Q9NQU5
row,Variant,effect of a mutation on the interaction
1,K49E;R56E;V178D,decreasing interaction strength

# Variants of: B1
# Details: with igf1r_human IGF1R
row,Variant,effect of a mutation on the interaction
1,K49E;R56E;V178D,decreasing interaction strength

# Variants of: B1
# Details: with aapk2_human PRKAA2, P54646
row,Variant,effect of a mutation on the interaction
1,K49E;R56E;V178D,decreasing interaction strength

# Variants of: B1
# Details: with pak4_human PAK4, O96013
row,Variant,effect of a mutation on the interaction
1,K49E;R56E;V178D,decreasing interaction strength

# Variants of: B1
# Details: with pgfra_human PDGFRA
row,Variant,effect of a mutation on the interaction
1,K49E;R56E;V178D,decreasing interaction strength

# Variants of: B1
# Details: with cdk17_human CDK17, Q00537
row,Variant,effect of a mutation on the interaction
1,K49E;R56E;V178D,decreasing interaction strength

# Variants of: B1
# Details: with mink1_human MINK1, Q8N4C8
row,Variant,effect of a mutation on the interaction
1,K49E;R56E;V178D,decreasing interaction strength

# Variants of: B1
# Details: with kcc2d_human CAMK2D
row,Variant,effect of a mutation on the interaction
1,K49E;R56E;V178D,decreasing interaction strength

# Variants of: B1
# Details: with kcc2a_human CAMK2A
row,Variant,effect of a mutation on the interaction
1,K49E;R56E;V178D,decreasing interaction strength

# Variants of: B1
# Details: with dapk2_human DAPK2, Q9UIK4
row,Variant,effect of a mutation on the interaction
1,K49E;R56E;V178D,decreasing interaction strength

# Variants of: B1
# Details: with m4k1_human MAP4K1, Q92918
row,Variant,effect of a mutation on the interaction
1,K49E;R56E;V178D,decreasing interaction strength

# Variants of: B1
# Details: with erbb4_human ERBB4, Q15303
row,Variant,effect of a mutation on the interaction
1,K49E;R56E;V178D,decreasing interaction strength

# Variants of: B1
# Details: with bub1b_human BUB1B
row,Variant,effect of a mutation on the interaction
1,K49E;R56E;V178D,decreasing interaction strength
